Several values for one entry are separate records, joined by “and”; a condition that tells them apart may be missing. Equal entries are not always repeated.
Tests used:
Human OX40 [1] = molecular target: T1, Human OX40 (human, UniProt P43489 29-277); assay: cell-based or functional assay
T1 sequence: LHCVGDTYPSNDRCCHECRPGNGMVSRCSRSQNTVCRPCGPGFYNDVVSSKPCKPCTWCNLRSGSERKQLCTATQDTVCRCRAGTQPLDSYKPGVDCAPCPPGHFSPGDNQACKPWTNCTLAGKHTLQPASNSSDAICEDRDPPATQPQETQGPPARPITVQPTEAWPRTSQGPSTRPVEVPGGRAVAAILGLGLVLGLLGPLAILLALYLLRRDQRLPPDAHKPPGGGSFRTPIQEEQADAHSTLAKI

Human OX40 [2] = molecular target: T1, Human OX40; assay: flow cytometry on activated primary human CD4+ T cells, AlexaFluor 488 anti-mouse IgG secondary [FIGURE 2A-D, con't.), panel C]
Procedure: (§1) OX40mAb24 (10 μg/mL) or 9B12 (10 μg/mL) was diluted over a 17 point 2-fold dilution series. OX40mAb24 was added to 100,000 cells (activated primary CD4⁺ T cells or human OX40-overexpressing Jurkat NFkB-luciferase clone 64 cells) per well and incubated for one hour at 4° C. For background binding subtraction, cells were incubated in the presence of secondary antibody alone. […] Following secondary antibody incubation, cells were washed and suspended in 100 μL FACS buffer for flow cytometry analysis on a BD LSRII flow cytometer as described below.

[3] = molecular target: T2, KO_L116+A126 (human OX40 aa Leu116 and Ala126 replaced with the mouse counterparts) (human, UniProt P43489 29-277); assay: flow cytometry, transfected 293F cells, column KO_L116A126 [FIGURE 32B con't]
T2 construct: Variant with a transmembrane domain, transient on 293F cells
T2 chain: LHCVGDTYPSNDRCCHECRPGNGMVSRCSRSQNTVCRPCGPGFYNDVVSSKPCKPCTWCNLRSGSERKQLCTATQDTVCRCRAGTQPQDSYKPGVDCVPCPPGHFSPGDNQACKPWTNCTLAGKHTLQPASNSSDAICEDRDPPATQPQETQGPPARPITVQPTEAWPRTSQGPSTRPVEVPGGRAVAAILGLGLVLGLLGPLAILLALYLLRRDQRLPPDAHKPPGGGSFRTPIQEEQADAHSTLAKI
Procedure: Forty-eight hours after transfection, HEK293F cells were incubated with 1 μg/mL of OX40mAb24 for 1 hour on ice in PBS. To detect bound OX40mAb24 by flow cytometry, the cells were washed 3-times with cold PBS, incubated with 1 μg/mL of Alexa480-conjugated anti-human IgG antibody for 1 hr on ice, and then analyzed using the LSRII flow cytometer.
The expression levels of all chimeric OX40 variants were also monitored by flow cytometry; the cells were incubated with a mixture of sheep anti-human OX40 and goat anti-mouse OX40 polyclonal antibodies at 1 μg/mL in PBS for 1 hour on ice. Cells were washed 3-times with cold PBS, and then incubated with a mixture of Alexa480-conjugated anti-goat and anti-sheep IgG polyclonal antibodies. After washing 3 times with cold PBS, cells were analyzed with the LSRII flow cytometer.

Human OX40 [4] = molecular target: T1, Human OX40; assay: flow cytometry on human OX40-overexpressing Jurkat clone 64 cells; 50% receptor occupancy calculated from Kd
Procedure: (§2) Human OX40-overexpressing Jurkat NFκB-luciferase clone 64 cells were cultured in complete RPMI+10% FBS prior to binding experiments, without the need for activation.
as §1

[5] = molecular target: cyno/rhesus OX40 expressed on Jurkat NFκB-luciferase reporter clone B2 (cynomolgus/rhesus monkey); assay: cell-based or functional assay
Human OX40 [6] = molecular target: T1, Human OX40; assay: cell-based or functional assay; remark: listed apart in the source
Human OX40 [7] = molecular target: T1, Human OX40; assay: cell-based or functional assay; remark: listed apart in the source
Human OX40 [8] = molecular target: T1, Human OX40; assay: cell-based or functional assay; remark: listed apart in the source
Human OX40 [9] = molecular target: T1, Human OX40; assay: flow cytometry, equilibrium binding to human OX40-overexpressing Jurkat NFkB-luciferase clone 64 cells; mean of 3 experiments (StdErr)
Procedure: as §2, §1

Rhesus monkey OX40 = molecular target: T3, Rhesus monkey OX40 (rhesus monkey); assay: flow cytometry, equilibrium binding to activated primary rhesus CD4+ T cells; mean of 2 experiments (StdErr)
T3 construct: also called rhesus macaque OX40

Human OX40 [10] = molecular target: T1, Human OX40; assay: cell-based or functional assay; remark: listed apart in the source
Human OX40 [11] = molecular target: T1, Human OX40; assay: cell-based or functional assay; remark: listed apart in the source
Human OX40 [12] = molecular target: T1, Human OX40; assay: cell-based or functional assay; remark: listed apart in the source

EC50, NFκB-luciferase 2-cell assay, exp 1, Raji (Human OX40 [1]): 9.28 nM | EC50, NFκB-luciferase 2-cell assay, exp 2, CD32A-expressing HEK (Human OX40 [1]): 0.338 nM | EC50, NFκB-luciferase 2-cell assay, exp 3, CD32A-expressing HEK (Human OX40 [1]): 0.225 nM | EC50, NFκB-luciferase 2-cell assay, exp 4, Raji (Human OX40 [1]): 5.04 nM | EC50, NFκB-luciferase 2-cell assay, exp 5, CD32B-expressing HEK (Human OX40 [1]): 0.726 nM | EC50, NFκB-luciferase 2-cell assay, exp 6, Raji (Human OX40 [1]): 2.7 nM | EC50, NFκB-luciferase 2-cell assay, exp 7, CD32B-expressing HEK (Human OX40 [1]): 1.77 nM | EC50, NFκB-luciferase 2-cell assay, exp 8, CD32B-expressing HEK (Human OX40 [1]): 1.34 nM | EC50, NFκB-luciferase 2-cell assay, exp 9, Raji (Human OX40 [1]): 3.07 nM | EC50, NFκB-luciferase 2-cell assay, exp 10, Raji (Human OX40 [1]): 3.33 nM | EC50, NFκB-luciferase 2-cell assay, exp 11, CD32B-expressing HEK (Human OX40 [1]): 2.36 nM | EC50, NFκB-luciferase 2-cell assay, exp 12, CD45+ cells, NSCLC (Human OX40 [1]): 0.223 nM | EC50, NFκB-luciferase 2-cell assay, exp 15, CD45+ cells, RCC (Human OX40 [1]): 2.42 nM | EC50 (read off the curve) (Human OX40 [2]): ~1 nM and ~0.5 nM | binding result [3]: no binding | EC50 (Human OX40 [4]): 0.726 nM | EC50, NFκB-luciferase 2-cell assay, rhesus RBC-lysed whole blood + cyno/rhesus OX40 Jurkat clone B2 [5]: 6.05 nM | mean EC50, NFκB-luciferase 2-cell assay, human Raji B cells + human OX40 Jurkat clone 64 (Human OX40 [6]): 4.68 nM | EC50, IFNγ release, donor 645 (Human OX40 [7]): 2.38 nM | EC50, IFNγ release, donor 651 (Human OX40 [7]): 0.758 nM | EC50, IL10 release, donor 367 (Human OX40 [8]): 0.198 nM | EC50, IL10 release, donor 645 (Human OX40 [8]): 1.22 nM | EC50, IL10 release, donor 651 (Human OX40 [8]): 0.796 nM | Kd (Human OX40 [9]): 0.726 nM | Kd (Rhesus monkey OX40): 0.713 nM | EC50, CD4+ T cell proliferation, donor 367 (Human OX40 [10]): 0.156 nM | EC50, CD4+ T cell proliferation, donor 645 (Human OX40 [10]): 0.169 nM | EC50, CD4+ T cell proliferation, donor 651 (Human OX40 [10]): 0.309 nM | EC50, CD4+ T cell proliferation, donor 661 (Human OX40 [10]): 0.237 nM | EC50, IL13 release, donor 645 (Human OX40 [11]): 5.45 nM | EC50, IL13 release, donor 651 (Human OX40 [11]): 1.77 nM | EC50, IL13 release, donor 661 (Human OX40 [11]): 0.238 nM | EC50, TNFα release, donor 645 (Human OX40 [12]): 0.67 nM | EC50, TNFα release, donor 651 (Human OX40 [12]): 0.764 nM
B1: 9B12 (antibody, mouse IgG1, V domains shown)
VH: EVQLQESGPSLVKPSQTLSLTCSVTGDSFTSGYWNWIRKFPGNRLEYMGYISYNGITYHNPSLKSRISITRDTSKNHYYLQLNSVTTEDTATYFCARYRYDYDGGHAMDYWGQGTLVTVSS
VL: DIQMTQTTSSLSASLGDRVTISCRASQDISNYLNWYQQKPDGTVKLLIYYTSKLHSGVPSRFSGSGSRTDYSLTITDLDQEDIATYFCQQGSALPWTFGQGTKVEIKR
notes: mouse IgG1 kappa; also called murine mAb 9B12; mouse anti-human OX40 IgG1κ monoclonal antibody

Reference: US20160137740A1 (AstraZeneca / MedImmune, published 2016)
